Target: Ty1c CA(F323S) (S. cerevisiae)
Test: SEC-MALS; individual proteins, 12.5-200 µM, Superdex INCREASE 200 10/300 GL at 298 K, 50 mM Tris-HCl, 800 mM NaCl, 0.5 mM TCEP, 3 mM NaN3, pH 8.5

With Ty1c CA(F323S) (domain or fragment) the stoichiometry N was 2.

From PMC12530519
